Assay [1] concerns the target T1, ALK 001P.
T1 construct: ALK (1-19) is described only as a region comprising a secretory signal, and no cleavage site is stated; Expressed in Expi293 cells and captured on a Protein A chip through its Fc
Briefly: SPR, Biacore 8K; ALK 001P captured on Protein A chip, ligand as analyte, 6 concentrations from 20 nM. Background: Surface plasmon resonance follows binding to a sensor surface in real time, without labels.

The target in assay [2] is T2, LTK 001P.
T2 construct: Expressed in Expi293 cells and captured on a Protein A chip through its Fc
Briefly: SPR, Biacore 8K; LTK 001P captured on Protein A chip, ligand as analyte, 6 concentrations from 20 nM.

For assay [3], the target named is T1, ALK 001P. Briefly: SPR, Biacore 8K; receptor-Fc captured on Protein A chip, ligand as analyte. The procedure:
(§1) Whether or not ALK 001P and LTK 001P obtained in Example 5 had bound to Ligand 001P and Ligand 002P was examined using Biacore 8K instrument (GE Healthcare Japan) by the surface plasmon resonance (SPR) technique.
(§2) ALK 001P and LTK 001P were dissociated (i.e., regenerated) from Protein A coating the sensor chip surface (i.e., regeneration) by injecting 10 mM Glycine-HCl (pH 1.6) at a flow rate of 30 μl/min for 30 seconds. The bond dissociation curve modified by subtracting the baseline value was prepared using Biacore8K Evaluation Software (GE Healthcare Japan).

In assay [4] the target is T2, LTK 001P. The assay is described as above. As for the experimental part:
as §1, §2

B1: Ligand 017P (ligand)
chain: DGHHHHHHGSLQDSEVNQEAKPEVKPEVKPETHINLKVSDGSSEIFFKIKKTTPLRRLMEAFAKRQGKEMDSLTFLYDGIEIQADQTPEDLDMEDNDIIEAHREQIGGLEVLFQGPMKDKFLKHLTGPLYFSPKCSKHFHRLYHNTRDCTIPAYYKRCARLLTRLAVSPVCMEDKQ
As for B1, the binding result with ALK 001P [1] and in the assay with LTK 001P [2] was “binds” throughout.

B2: Ligand 015P (ligand)
chain: DGHHHHHHGSLQDSEVNQEAKPEVKPEVKPETHINLKVSDGSSEIFFKIKKTTPLRRLMEAFAKRQGKEMDSLTFLYDGIEIQADQTPEDLDMEDNDIIEAHREQIGGLEVLFQGPRDLRMKDKFLKHLTGPLYFSPKCSKHFHRLYHNTRDCTIPAYYKRCARLLTRLAVSPVCMEDKQ
In the case of B2, the binding result with ALK 001P [1] and with LTK 001P [2] was “binds” in each case.

B3: Ligand 024P (ligand)
chain: DGHHHHHHGSLQDSEVNQEAKPEVKPEVKPETHINLKVSDGSSEIFFKIKKTTPLRRLMEAFAKRQGKEMDSLTFLYDGIEIQADQTPEDLDMEDNDIIEAHREQIGGLEVLFQGPAEAAGLGPSPEQRVEIVPRDLRMKDKFLKHLTGPLYFSPKCSKHFHRLYHNTRDCTIPAYYKRCARLLTRLAVSPVCM
With B3, the binding result with ALK 001P [1] and with LTK 001P [2] was “binds” throughout.

B4: Ligand 016P (ligand)
chain: DGHHHHHHGSLQDSEVNQEAKPEVKPEVKPETHINLKVSDGSSEIFFKIKKTTPLRRLMEAFAKRQGKEMDSLTFLYDGIEIQADQTPEDLDMEDNDIIEAHREQIGGLEVLFQGPLRMKDKFLKHLTGPLYFSPKCSKHFHRLYHNTRDCTIPAYYKRCARLLTRLAVSPVCMEDKQ
For the molecule B4, the binding result in the assay with ALK 001P [1] and with LTK 001P [2] was “binds” in each case.

B5: Ligand 023P (ligand)
chain: DGHHHHHHGSLQDSEVNQEAKPEVKPEVKPETHINLKVSDGSSEIFFKIKKTTPLRRLMEAFAKRQGKEMDSLTFLYDGIEIQADQTPEDLDMEDNDIIEAHREQIGGLEVLFQGPAEAAGLGPSPEQRVEIVPRDLRMKDKFLKHLTGPLYFSPKCSKHFHRLYHNTRDCTIPAYYKRCARLLTRLAVSPVCMED
Take B5: the binding result in the assay with ALK 001P [1] and with LTK 001P [2] was “binds” in each case.

B6: Ligand 014P (ligand)
chain: DGHHHHHHGSLQDSEVNQEAKPEVKPEVKPETHINLKVSDGSSEIFFKIKKTTPLRRLMEAFAKRQGKEMDSLTFLYDGIEIQADQTPEDLDMEDNDIIEAHREQIGGLEVLFQGPVPRDLRMKDKFLKHLTGPLYFSPKCSKHFHRLYHNTRDCTIPAYYKRCARLLTRLAVSPVCMEDKQ
Consider B6, for which the binding result in the assay with ALK 001P [1] and in the assay with LTK 001P [2] was “binds” in each case.

B7: Ligand 021P (ligand)
chain: DGHHHHHHGSLQDSEVNQEAKPEVKPEVKPETHINLKVSDGSSEIFFKIKKTTPLRRLMEAFAKRQGKEMDSLTFLYDGIEIQADQTPEDLDMEDNDIIEAHREQIGGLEVLFQGPLTGPLYFSPKCSKHFHRLYHNTRDCTIPAYYKRCARLLTRLAVSPVCMEDKQ
On to B7, for which the binding result with ALK 001P [1] and with LTK 001P [2] was “binds” in each case.

B8: Ligand 018P (ligand)
chain: DGHHHHHHGSLQDSEVNQEAKPEVKPEVKPETHINLKVSDGSSEIFFKIKKTTPLRRLMEAFAKRQGKEMDSLTFLYDGIEIQADQTPEDLDMEDNDIIEAHREQIGGLEVLFQGPDKFLKHLTGPLYFSPKCSKHFHRLYHNTRDCTIPAYYKRCARLLTRLAVSPVCMEDKQ
notes: also called Ligand 18P
In the case of B8, the binding result in the assay with ALK 001P [1] and with LTK 001P [2] was “binds” throughout.

B9: Ligand 013P (ligand)
chain: DGHHHHHHGSLQDSEVNQEAKPEVKPEVKPETHINLKVSDGSSEIFFKIKKTTPLRRLMEAFAKRQGKEMDSLTFLYDGIEIQADQTPEDLDMEDNDIIEAHREQIGGLEVLFQGPEIVPRDLRMKDKFLKHLTGPLYFSPKCSKHFHRLYHNTRDCTIPAYYKRCARLLTRLAVSPVCMEDKQ
Regarding B9, the binding result with ALK 001P [1] and with LTK 001P [2] was “binds” throughout.

B10: Ligand 019P (ligand)
chain: DGHHHHHHGSLQDSEVNQEAKPEVKPEVKPETHINLKVSDGSSEIFFKIKKTTPLRRLMEAFAKRQGKEMDSLTFLYDGIEIQADQTPEDLDMEDNDIIEAHREQIGGLEVLFQGPFLKHLTGPLYFSPKCSKHFHRLYHNTRDCTIPAYYKRCARLLTRLAVSPVCMEDKQ
As for B10, the binding result in the assay with ALK 001P [1] and in the assay with LTK 001P [2] was “binds” each time.

B11: Ligand 020P (ligand)
chain: DGHHHHHHGSLQDSEVNQEAKPEVKPEVKPETHINLKVSDGSSEIFFKIKKTTPLRRLMEAFAKRQGKEMDSLTFLYDGIEIQADQTPEDLDMEDNDIIEAHREQIGGLEVLFQGPKHLTGPLYFSPKCSKHFHRLYHNTRDCTIPAYYKRCARLLTRLAVSPVCMEDKQ
On to B11, for which the binding result with ALK 001P [1] and with LTK 001P [2] was “binds” in each case.

B12: Ligand 022P (ligand)
chain: DGHHHHHHGSLQDSEVNQEAKPEVKPEVKPETHINLKVSDGSSEIFFKIKKTTPLRRLMEAFAKRQGKEMDSLTFLYDGIEIQADQTPEDLDMEDNDIIEAHREQIGGLEVLFQGPGPLYFSPKCSKHFHRLYHNTRDCTIPAYYKRCARLLTRLAVSPVCMEDKQ
Turning to B12, the binding result in the assay with ALK 001P [1] and with LTK 001P [2] was “binds” in each case.

B13: Ligand 012P (ligand)
chain: DGHHHHHHGSLQDSEVNQEAKPEVKPEVKPETHINLKVSDGSSEIFFKIKKTTPLRRLMEAFAKRQGKEMDSLTFLYDGIEIQADQTPEDLDMEDNDIIEAHREQIGGLEVLFQGPRVEIVPRDLRMKDKFLKHLTGPLYFSPKCSKHFHRLYHNTRDCTIPAYYKRCARLLTRLAVSPVCMEDKQ
For B13, the binding result with ALK 001P [1] and in the assay with LTK 001P [2] was “binds” throughout.

B14: Ligand 001P (ligand)
chain: DGHHHHHHGSLQDSEVNQEAKPEVKPEVKPETHINLKVSDGSSEIFFKIKKTTPLRRLMEAFAKRQGKEMDSLTFLYDGIEIQADQTPEDLDMEDNDIIEAHREQIGGLEVLFQGPAAGAGRTPSGSRSAEIFPRDSNLKDKFIKHFTGPVTFSPECSKHFHRLYYNTRECSTPAYYKRCARLLTRLAVSPLCSQT
With B14, the binding result with ALK 001P [3] and with LTK 001P [4] was “binds” in each case.

(Values after patent publication US20220249561A1 (SHINSHU UNIVERSITY, published 2022).)
